From patent publication US20160097084

Assays:
[1] = test system: T1, SAStide-Cy5 (Syk Artificial Substrate peptide conjugated with Cy5)
T1 sequence: GGDEEDYEEPDEPGGCGG

[2] = test system: T2, 5-FAM-SFAStide-A (Src-Family kinase Artificial Substrate peptide)
T2 sequence: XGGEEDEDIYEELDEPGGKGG

Row | Substance | ELISA-based chemifluorescence (anti-phosphotyrosine 4G10, HRP secondary, Amplex Red) of an in vitro kinase reaction [1] | TR-LRET emission (Cy5 fluorescence signal) over the time course of an in vitro kinase reaction [1] | TR-LRET emission (5-FAM fluorescence signal) in the in vitro kinase reaction with Syk only [2]
1 | Syk-EGFP | the ELISA-based assay displayed increasing fluorescent signal over time for the appropriately match substrates |  | 
2 | Syk-His6 (His6-tagged spleen tyrosine kinase) |  | TR-LRET emission spectra for each respective biosensor displayed an increase in the conjugated dye's fluorescence signal | with minimal bleed through or background interference from the fluorophore attached to the other biosensor
